Data on one substance can be found in patent US20200384107A1.

In the test the target is CD40 (as in Table 2, species and form not stated). The test can be described thus: binding kinetics, method not stated.

By Kd is commonly meant the equilibrium constant for the complex coming apart. High values mean a looser complex, low ones a tighter complex. A word on the koff: it is a measure of how fast the partners let go of each other. Read a high koff as a short-lived complex. The term kon denotes a measure of how fast the partners come together. Substance 5D12 (anti-CD40 antibody) had a Kd of 0.0102 µM, a koff of 1.54e-05 s⁻¹ and a kon of 1510 M⁻¹ s⁻¹.
